The data set in a line: SEC-HPLC aggregation analysis. The format is physicochemical. How it is done:
The antibody aggregation was analyzed by size-exclusion, high-performance liquid chromatography (SEC-HPLC) using an Agilent 1100. The mAb was diluted to 1 mg/mL in DPBS. The antibody (20 μL) was injected onto a TSKgel® SuperSW guard column (4.6 mm×3.5 cm, 4 μm pore size, Tosoh Bioscience), followed by a TSKgel® SuperSW3000 column (4.6 mm×30 cm, 4 μm pore size), eluted from the column with 0.1 M sodium phosphate containing 0.15 M NaCl and 0.05% NaN3, at pH 7.4, at a flow rate of 0.3 mL/min for 20 min. All data were analyzed using Agilent ChemStation software. Percent aggregation was calculated as [PAaggregate/PAtotal]*100, where PA=integrated peak area.
ADC was diluted to 1 mg/mL in DPBS. ADC (10 μL) was then injected onto an Advanced SEC 300A guard column (4.6 mm×3.5 cm, 2.7 μm pore size, Agilent), followed by a AdvancedBio 300A column (4.6 mm×30 cm, 2.7 μm pore size). ADC was eluted from the column with 0.1 M sodium phosphate containing 0.15 M NaCl and 5% IPA, pH 7.4 at a flow rate of 0.25 mL/min for 28 min. All data were analyzed using Agilent ChemStation software. Percent aggregation was calculated as [PAaggregate/PAtotal]*100, where PA=integrated peak area.
For orientation: In gel filtration, larger molecules generally elute earlier.

The source of these data is US20230398228A1, “ERIBULIN-BASED ANTIBODY-DRUG CONJUGATES AND METHODS OF USE” (EISAI R&D MANAGEMENT CO., LTD., priority 2016, published 2023).

For the substance MORAb009-PEG2-eribulin, the “SEC-HPLC Analysis % Aggr.” value is listed as 1.15%, the “SEC-HPLC Analysis % Frag.” value was 1.74% and the “SEC-HPLC Analysis % Monomer” value worked out at 97.11%.

For the substance MORAb009-PEG4-eribulin, the “SEC-HPLC Analysis % Aggr.” value was 1.03%, the “SEC-HPLC Analysis % Frag.” value is recorded as 1.84% and the “SEC-HPLC Analysis % Monomer” value was determined as 97.13%.
